Measurements from the Immune Epitope Database (IEDB).
pIC50, pKd: −log10 of the molar value.

Columns and labels:
[1] = target: HLA-C*14:02; experiment: IEDB peptide-MHC binding, purified MHC/direct/fluorescence; filed as Kd, often an IC50 or EC50 that approximates it; ≥ and ≤ were set here for values at or beyond the usual limits of such assays; settings: source organism: Variola virus
[2] = target: HLA-A*02:50; experiment: IEDB peptide-MHC binding, purified MHC/competitive/fluorescence; filed as Kd, often an IC50 or EC50 that approximates it; ≥ and ≤ were set here for values at or beyond the usual limits of such assays; settings: source organism: Vibrio vulnificus YJ016
[3] = target: HLA-B*15:01; experiment: IEDB peptide-MHC binding, purified MHC/direct/fluorescence; filed as Kd, often an IC50 or EC50 that approximates it; ≥ and ≤ were set here for values at or beyond the usual limits of such assays
[4] = target: HLA-A*11:01; experiment: as above; settings: source organism: Vibrio vulnificus
[5] = target: HLA-A*24:02; experiment: as above; settings: source organism: Vibrio vulnificus
[6] = target: HLA-B*18:01; experiment: as above
[7] = target: HLA-B*08:02; experiment: as above; settings: source organism: Vibrio vulnificus CMCP6
[8] = target: HLA-A*02:06; experiment: as above
[9] = target: HLA-B*58:01; experiment: as above; settings: source organism: Vibrio vulnificus
[10] = target: HLA-A*03:01; experiment: as above
[11] = target: HLA-B*07:02; experiment: as above; settings: source organism: Vibrio vulnificus
[12] = target: HLA-A*31:01; experiment: as above; settings: source organism: Vibrio vulnificus
[13] = target: HLA-B*08:01; experiment: as above; settings: source organism: Vibrio vulnificus CMCP6
[14] = target: HLA-A*69:01; experiment: as above; settings: source organism: Vibrio vulnificus
[15] = target: HLA-B*27:05; experiment: as above; settings: source organism: Vibrio vulnificus
[16] = target: HLA-B*46:01; experiment: as above
[17] = target: HLA-A*02:01; experiment: as above
[18] = target: HLA-B*40:01; experiment: as above; settings: source organism: Vibrio vulnificus
[19] = target: HLA-A*02:03; experiment: as above; settings: source organism: Vibrio vulnificus CMCP6
[20] = target: HLA-A*01:01; experiment: as above; settings: source organism: Vibrio vulnificus
[21] = target: HLA-B*44:02; experiment: as above; settings: source organism: Vibrio vulnificus
[22] = target: HLA-A*02:11; experiment: as above; settings: source organism: Vibrio vulnificus CMCP6
[23] = target: HLA-A*02:12; experiment: as above
[24] = target: HLA-A*02:19; experiment: as above; settings: source organism: Vibrio vulnificus CMCP6
[25] = target: HLA-B*15:42; experiment: IEDB peptide-MHC binding, purified MHC/competitive/fluorescence; filed as Kd, often an IC50 or EC50 that approximates it; ≥ and ≤ were set here for values at or beyond the usual limits of such assays; settings: source organism: Acetivibrio thermocellus ATCC 27405
[26] = target: HLA-C*04:01; experiment: as above; settings: source organism: Acetivibrio thermocellus ATCC 27405
[27] = target: HLA-B*83:01; experiment: as above; settings: source organism: Acetivibrio thermocellus ATCC 27405
[28] = target: HLA-B*45:06; experiment: as above; settings: source organism: Acetivibrio thermocellus ATCC 27405
[29] = target: HLA-B*27:05; experiment: IEDB peptide-MHC binding, cellular MHC/competitive/radioactivity; ≥ and ≤ were set here for values at or beyond the usual limits of such assays; settings: source organism: Hepacivirus hominis
[30] = target: HLA-B*58:01; experiment: IEDB peptide-MHC binding, purified MHC/competitive/fluorescence; filed as Kd, often an IC50 or EC50 that approximates it; ≥ and ≤ were set here for values at or beyond the usual limits of such assays; settings: source organism: Shigella flexneri 2a str. 2457T
[31] = target: HLA-B*35:01; experiment: as above; settings: source organism: Shigella flexneri 2a str. 2457T
[32] = target: HLA-A*01:01; experiment: as above; settings: source organism: Shigella flexneri 2a str. 2457T
[33] = target: HLA-C*04:01; experiment: IEDB peptide-MHC binding, purified MHC/direct/fluorescence; filed as Kd, often an IC50 or EC50 that approximates it; ≥ and ≤ were set here for values at or beyond the usual limits of such assays; settings: source organism: Shigella flexneri 2a str. 2457T
[34] = target: HLA-C*08:02; experiment: as above; settings: source organism: Shigella flexneri 2a str. 2457T
[35] = target: HLA-A*02:06; experiment: IEDB peptide-MHC binding, purified MHC/competitive/radioactivity; ≥ and ≤ were set here for values at or beyond the usual limits of such assays; settings: source organism: Hepatitis C virus (isolate H77)
[36] = target: HLA-A*02:01; experiment: as above; settings: source organism: Hepatitis C virus (isolate H77)
[37] = target: HLA-A*02:02; experiment: as above; settings: source organism: Hepatitis C virus (isolate H77)
[38] = target: HLA-A*02:03; experiment: as above; settings: source organism: Hepatitis C virus (isolate H77)
[39] = target: HLA-B*57:01; experiment: IEDB peptide-MHC binding, purified MHC/direct/fluorescence; filed as Kd, often an IC50 or EC50 that approximates it; ≥ and ≤ were set here for values at or beyond the usual limits of such assays; settings: source organism: Salmonella enterica subsp. enterica serovar Typhimurium
[40] = target: HLA-B*27:03; experiment: as above; settings: source organism: Salmonella enterica subsp. enterica serovar Typhimurium
[41] = source organism: Vibrio vulnificus
[42] = source organism: Vibrio vulnificus CMCP6
[43] = source organism: Salmonella enterica subsp. enterica serovar Typhimurium

Sequence: VIYEAVIHL
- pKd [1]: 6.71

Sequence: GLKELGDWV
- pKd [2]: ≥ 10.00
- pKd [3, 41]: ≤ 4.70
- pKd [4]: ≤ 4.70
- pKd [5]: ≤ 4.70
- pKd [6, 41]: ≤ 4.70
- pKd [7]: ≤ 4.70
- pKd [8, 42]: 6.84
- pKd [9]: ≤ 4.70
- pKd [10, 41]: ≤ 4.70
- pKd [11]: ≤ 4.70
- pKd [12]: ≤ 4.70
- pKd [13]: ≤ 4.70
- pKd [14]: ≤ 5.30
- pKd [15]: ≤ 4.70
- pKd [16, 41]: ≤ 4.70
- pKd [17, 41]: 6.20
- pKd [18]: ≤ 4.70
- pKd [19]: 8.70
- pKd [20]: ≤ 4.70
- pKd [21]: ≤ 4.70
- pKd [22]: 8.05
- pKd [23, 42]: 6.92
- pKd [24]: ≤ 4.70

Sequence: TVIDVNTGK
- pKd [25]: ≤ 5.30
- pKd [26]: ≤ 5.30
- pKd [27]: ≤ 5.30
- pKd [28]: ≤ 5.30

Sequence: ARHTPVNSW
- pIC50 [29]: 6.47

Sequence: MSPDNALIY
- pKd [30]: 6.34
- pKd [31]: 8.14
- pKd [32]: 7.05
- pKd [33]: ≤ 4.70
- pKd [34]: ≤ 4.70

Sequence: KLVGLGLNAV
- pIC50 [35]: 8.05
- pIC50 [36]: 7.77
- pIC50 [37]: 7.85
- pIC50 [38]: 8.09

Sequence: QVNDVLHSV
- pKd [3, 43]: ≤ 4.70
- pKd [39]: ≤ 4.70
- pKd [6, 43]: ≤ 4.70
- pKd [8, 43]: 8.52
- pKd [10, 43]: ≤ 4.70
- pKd [40]: ≤ 4.70
- pKd [16, 43]: ≤ 4.70
- pKd [17, 43]: 7.39
- pKd [23, 43]: 7.04
